# Laboratory results reported in the supplement of paper PMC10567573.
# B1: OR3A1 (parent)
# chain: PMYFFLGNLSVLDVGCISVTVPSM
# Variants of: B1
# Experiment: protein stability index of a GFP-peptide fusion (GPS, HEK-293T) (PSI 1-6); higher = more stable
# Conditions: c terminus: a fixed tail appended
# 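Also: lentivirally expressed fusions sorted by FACS into six bins by GFP to DsRed ratio, PSI derived from sequencing read proportions per bin multiplied by bin number.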
row,Variant,protein stability index
1,PMYKFLGNLSVLDVGCISVTVPSM,1.52
2,PMYSFLGNLSVLDVGCISVTVPSM,1.91
3,PMYPFLGNLSVLDVGCISVTVPSM,3.27
4,PMYTFLGNLSVLDVGCISVTVPSM,1.26
5,PMYMFLGNLSVLDVGCISVTVPSM,4.21
6,PMYFFLGNLSVTDVGCISVTVPSM,4.2
7,PMYFFLGNLSVCDVGCISVTVPSM,2.83
8,PMYFFLGNLSVYDVGCISVTVPSM,3.05
9,PMYFFLGNLSVGDVGCISVTVPSM,2.35
10,PMYFFLGNLSVMDVGCISVTVPSM,1.62
11,PMYFFLGNLSVDDVGCISVTVPSM,3.05
12,PMYFFLGNLSVFDVGCISVTVPSM,2.22
13,PMYFFLGNLSVIDVGCISVTVPSM,3.78
14,LMYFFLGNLSVLDVGCISVTVPSM,4.36
15,HMYFFLGNLSVLDVGCISVTVPSM,2.79
16,EMYFFLGNLSVLDVGCISVTVPSM,2.01
17,SMYFFLGNLSVLDVGCISVTVPSM,2.89
18,YMYFFLGNLSVLDVGCISVTVPSM,2.1
19,CMYFFLGNLSVLDVGCISVTVPSM,2.46
20,QMYFFLGNLSVLDVGCISVTVPSM,3.32
21,NMYFFLGNLSVLDVGCISVTVPSM,3.87
22,TMYFFLGNLSVLDVGCISVTVPSM,2.16
23,PMYFFLGPLSVLDVGCISVTVPSM,2.27
24,PMYFFLGWLSVLDVGCISVTVPSM,3.59

row,Variant,protein stability index
1,PMYFFLGFLSVLDVGCISVTVPSM,2.06
2,PMYFFLGNLSVLDVGCISHTVPSM,2.77
3,PMYFFLGNLSVLDVGCISMTVPSM,2.97
4,PMYFFLGNLSVLDVGCISPTVPSM,2.55
5,PMYFFLGNLSVLDVGCISQTVPSM,3.27
6,PMYFFLGNLSVLDVGCISTTVPSM,4.48
7,PMYFFLGNLSVLDVGCISITVPSM,2.3
8,PMYFFLGNLSVLDVGCISKTVPSM,3.29
9,PMYFFLGNLSVLDVGCISWTVPSM,1.96
10,PMYFFLGNLSVLDVGCISSTVPSM,3.48
11,PMYFFLGNLSVLDVGCISCTVPSM,3.96
12,PMYFFLGNLSVLDVGCISATVPSM,1.59
13,PMYFNLGNLSVLDVGCISVTVPSM,2.82
14,PMYFGLGNLSVLDVGCISVTVPSM,1.83
15,PMYFPLGNLSVLDVGCISVTVPSM,1.79
16,PMYFSLGNLSVLDVGCISVTVPSM,3.9
17,PMYFDLGNLSVLDVGCISVTVPSM,2.06
18,PMYFHLGNLSVLDVGCISVTVPSM,2.64
19,PMYFFLGNESVLDVGCISVTVPSM,3.5
20,PMYFFLGNQSVLDVGCISVTVPSM,1.96
21,PMYFFLGNTSVLDVGCISVTVPSM,2.59
22,PMYFFLGNCSVLDVGCISVTVPSM,3.93
23,PMYFFLGNRSVLDVGCISVTVPSM,3.52
24,PMYFFLGNASVLDVGCISVTVPSM,2.42

row,Variant,protein stability index
1,PMYFFLGNSSVLDVGCISVTVPSM,1.99
2,PMYFFLGNKSVLDVGCISVTVPSM,2.86
3,PMYFFLGNLSVLDVGCISVTVPTM,2.84
4,PMYFFLGNLSVLDVGCISVTVPQM,3.82
5,PMYFFLGNLSVLDVGCISVTVPFM,1.78
6,PMYFFLGNLSVLDVGCISVTVPPM,2.46
7,PMYFFLGNLSVLDVGCISVTVPMM,2.67
8,PMYFFLGNLSVLDVGCISVTVPRM,2.15
9,PMYFFLGNLSVLDVGCISVTVPNM,2.58
10,PMYFFLGNLSVLDVGCISVTVPHM,2.76
11,PMYFFLGNLSVLDVGCISVTVPIM,2.86
12,PMYFFLGNLSVLDVGCISVTVPGM,2.99
13,PMYFFLGNLSILDVGCISVTVPSM,3.56
14,PMYFFLGNLSYLDVGCISVTVPSM,2.86
15,PMYFFLGNLSSLDVGCISVTVPSM,3.56
16,PMYFFLGNLSQLDVGCISVTVPSM,2.65
17,PMYFFLGNLSNLDVGCISVTVPSM,2.23
18,PMYFFLGNLSDLDVGCISVTVPSM,3.12
19,PMYFFLGNLSGLDVGCISVTVPSM,2.77
20,PMYFFLGNLSFLDVGCISVTVPSM,3.67
21,PMYFFLGNLSELDVGCISVTVPSM,3.18
22,PMYFFLYNLSVLDVGCISVTVPSM,2.69
23,PMYFFLFNLSVLDVGCISVTVPSM,3.9
24,PMYFFLQNLSVLDVGCISVTVPSM,2.31

row,Variant,protein stability index
1,PMYFFLKNLSVLDVGCISVTVPSM,2.05
2,PMYFFLENLSVLDVGCISVTVPSM,3.86
3,PMYFFLSNLSVLDVGCISVTVPSM,2.72
4,PMYFFLTNLSVLDVGCISVTVPSM,2.84
5,PMYFFLHNLSVLDVGCISVTVPSM,1.39
6,PMYFFLGNLSVLYVGCISVTVPSM,2.55
7,PMYFFLGNLSVLPVGCISVTVPSM,3.47
8,PMYFFLGNLSVLCVGCISVTVPSM,4.05
9,PMYFFLGNLSVLIVGCISVTVPSM,3.37
10,PMYFFLGNLSVLNVGCISVTVPSM,2.1
11,PMYFFLGNLSVLLVGCISVTVPSM,3.26
12,PMYFFLGNLSVLSVGCISVTVPSM,2.33
13,PMYFFLGNLSVLEVGCISVTVPSM,3.63
14,PMYFFLGNLSVLMVGCISVTVPSM,2.35
15,PMYFFLGNLSVLQVGCISVTVPSM,2.48
16,PMYFFLGNLSVLFVGCISVTVPSM,3.38
17,PMYFFLGNLSVLVVGCISVTVPSM,1.73
18,PMYFFLGNLSVLKVGCISVTVPSM,2.74
19,PMYFFLGNLYVLDVGCISVTVPSM,3.38
20,PMYFFLGNLWVLDVGCISVTVPSM,3.31
21,PMYFFLGNLKVLDVGCISVTVPSM,3.48
22,PMYFFLGNLFVLDVGCISVTVPSM,3.53
23,PMYFFLGNLRVLDVGCISVTVPSM,2.27
24,PMYFFLGNLLVLDVGCISVTVPSM,2.05

row,Variant,protein stability index
1,PMYFFLGNLCVLDVGCISVTVPSM,2.81
2,PMYFFLGNLSVLDVYCISVTVPSM,1.93
3,PMYFFLGNLSVLDVHCISVTVPSM,3.73
4,PMYFFLGNLSVLDVCCISVTVPSM,2.71
5,PMYFFLGNLSVLDVKCISVTVPSM,2.02
6,PMYFFLGNLSVLDVFCISVTVPSM,2.94
7,PMYFFLGNLSVLDVWCISVTVPSM,2.87
8,PMYFFLGNLSVLDVTCISVTVPSM,2.71
9,PMYFFLGNLSVLDVSCISVTVPSM,2.12
10,PMYFFLGNLSVLDVACISVTVPSM,2
11,PMYFFLGNLSVLDVPCISVTVPSM,2.36
12,PGYFFLGNLSVLDVGCISVTVPSM,2.32
13,PTYFFLGNLSVLDVGCISVTVPSM,2.15
14,PLYFFLGNLSVLDVGCISVTVPSM,4.31
15,PIYFFLGNLSVLDVGCISVTVPSM,2.31
16,PMYFFLGNLSVLDVGCISVTVPSI,2.02
17,PMYFFLGNLSVLDVGCISVTVPSA,3.27
18,PMYFFLGNLSVLDVGCISVTVPST,2.89
19,PMYFFLGNLSVLDVGCISVTVPSF,3.27
20,PMYFFLGNLSVLDVGCISVTVPSY,2.58
21,PMYFFLGNLSVLDYGCISVTVPSM,4.29
22,PMYFFLGNLSVLDDGCISVTVPSM,1.96
23,PMYFFLGNLSVLDAGCISVTVPSM,3.36
24,PMYFFLGNLSVLDGGCISVTVPSM,3.25

row,Variant,protein stability index
1,PMYFFLGNLSVLDTGCISVTVPSM,3.36
2,PMYFFLGNLSVLDNGCISVTVPSM,3.31
3,PMYFFLGNLSVLDPGCISVTVPSM,4.21
4,PMYFFLGNLSVLDHGCISVTVPSM,2.23
5,PMYFFLGNLSVLDMGCISVTVPSM,3.24
6,PMYFFPGNLSVLDVGCISVTVPSM,1.62
7,PMYFFTGNLSVLDVGCISVTVPSM,2.21
8,PMYFFMGNLSVLDVGCISVTVPSM,1.6
9,PMYFFQGNLSVLDVGCISVTVPSM,2.67
10,PMYFFVGNLSVLDVGCISVTVPSM,2.32
11,PMYFFAGNLSVLDVGCISVTVPSM,2.24
12,PMYFFDGNLSVLDVGCISVTVPSM,1.08
13,PMYFFLGNLSVLDVGCISVTVISM,3.76
14,PMYFFLGNLSVLDVGCISVTVWSM,3.15
15,PMYFFLGNLSVLDVGCISVTVMSM,2.94
16,PMYFFLGNLSVLDVGCISVTVKSM,3.56
17,PMYFFLGNLSVLDVGCISVTVYSM,3.21
18,PMYFFLGNLSVLDVGCISVTVCSM,2.72
19,PMYFFLGNLSVLDVGCISVTVDSM,2.56
20,PMYFFLGNLSVLDVGCISVTVESM,3.69
21,PMVFFLGNLSVLDVGCISVTVPSM,4.51
22,PMMFFLGNLSVLDVGCISVTVPSM,2.3
23,PMGFFLGNLSVLDVGCISVTVPSM,2.22
24,PMCFFLGNLSVLDVGCISVTVPSM,4.31

row,Variant,protein stability index
1,PMTFFLGNLSVLDVGCISVTVPSM,4.47
2,PMFFFLGNLSVLDVGCISVTVPSM,2.74
3,PMYFFLGNLSVLDVGTISVTVPSM,3.51
4,PMYFFLGNLSVLDVGDISVTVPSM,3.14
5,PMYFFLGNLSVLDVGKISVTVPSM,2.14
6,PMYFFLGNLSVLDVGNISVTVPSM,2.12
7,PMYFFLGNLSVLDVGGISVTVPSM,2.78
8,PMYFFLGNLSVLDVGFISVTVPSM,2.85
9,PMYFFLGNLSVLDVGHISVTVPSM,2.83
10,PMYFFLGNLSVLDVGEISVTVPSM,2.33
11,PMYFFLGNLSVLDVGCISVVVPSM,3.39
12,PMYFFLGNLSVLDVGCISVFVPSM,2.71
13,PMYFFLGNLSVLDVGCISVQVPSM,3.11
14,PMYFFLGNLSVLDVGCISVGVPSM,1.69
15,PMYFFLGNLSVLDVGCISVPVPSM,1.39
16,PMYFFLGNLSVLDVGCISVDVPSM,1.12
17,PMYFFLGNLSVLDVGCISVYVPSM,3.62
18,PMYFFLGNLSVLDVGCISVWVPSM,2.62
19,PMYFFLGNLSVLDVGCISVLVPSM,2.99
20,PMYFFLGNLSVLDVGCISVTPPSM,2.96
21,PMYFFLGNLSVLDVGCISVTSPSM,2.8
22,PMYFFLGNLSVLDVGCISVTQPSM,2.67
23,PMYFFLGNLSVLDVGCISVTCPSM,3.1
24,PMYFFLGNLSVLDVGCISVTKPSM,3.59

row,Variant,protein stability index
1,PMYFFLGNLSVLDVGCISVTRPSM,1.86
2,PMYFFLGNLSVLDVGCISVTDPSM,4.14
3,PMYFFLGNLSVLDVGCINVTVPSM,3.31
4,PMYFFLGNLSVLDVGCIIVTVPSM,3.52
5,PMYFFLGNLSVLDVGCIKVTVPSM,2.67
6,PMYFFLGNLSVLDVGCIWVTVPSM,2.37
7,PMYFFLGNLSVLDVGCIFVTVPSM,1.68
8,PMYFFLGNLSVLDVGCIGVTVPSM,2.33
9,PMYFFLGNLSVLDVGCIEVTVPSM,2.7
10,PMYFFLGNLSVLDVGCIRVTVPSM,3.87
11,PMYFFLGNLSVLDVGCIVVTVPSM,1.8
12,PMYFFLGNLSVLDVGCIYVTVPSM,2.26
13,PMYFFLGNLSVLDVGCHSVTVPSM,2.75
14,PMYFFLGNLSVLDVGCPSVTVPSM,3.39
15,PMYFFLGNLSVLDVGCYSVTVPSM,1.63
16,PMYFFLGNLSVLDVGCSSVTVPSM,3.03
17,PMYFFLGNLSVLDVGCKSVTVPSM,2.97
18,PMYFFLGNLSVLDVGCFSVTVPSM,3.32
19,PMYFFLGNLSVLDVGCRSVTVPSM,3.71
20,PMYFFLGNLSVLDVGCESVTVPSM,2.17
